From patent US20230204576A1

What was measured:
[1] = molecular target: HLA A*03:01, labelled with Alexafluor 647 (human); assay: microfluidic diffusional sizing, 25 nM HLA, non-linear binding fit
[2] = molecular target: HLA A*03:01, labelled with Alexafluor 647 (human); assay: microfluidic diffusional sizing, global fit at 25 nM and 500 pM HLA

antibody W6/32
Kd [1]: 0.961 nM | binding site concentration B1 [1]: 13 nM | Kd [2]: 0.466 nM
